Reference: patent publication US20090117593A1, “T. Cruzi-derived neurotrophic agents and methods of use therefor” (Tufts University, priority 2006, published 2009)
“Also recorded” adds a separate entry of the source. Where two headings read alike, the source gives them in different places.

B1: cruzipain: T. cruzi protease (protein, UniProt P25779 123-467, looked up)
Cruzipain: APAAVDWRARGAVTAVKDQGQCGSCWAFSAIGNVECQWFLAGHPLTNLSEQMLVSCDKTDSGCSGGLMNNAFEWIVQENNGAVYTEDSYPYASGEGISPPCTTSGHTVGATITGHVELPQDEAQIAAWLAVNGPVAVAVDASSWMTYTGGVMTSCVSEQLDHGVLLVGYNDSAAVPYWIIKNSWTTQWGEEGYIRIAKGSNQCLVKEEASSAVVGGPGPTPEPTTTTTTSAPGPSPSYFVQMSCTDAACIVGCENVTLPTGQCLLTTSGVSAIVTCGAETLTEEVFLTSTHCSGPSVRSSVPLNKCNRLLRGSVEFFCGSSSSGRLADVDRQRRHQPYHSRHRRL
B2: LTR: recombinant full-length C-terminal long tandem repeat of TS clone 7F (protein)
chain: NRRQLNTEEIRTLFLSQDLIGTEAHMDSSSDSSAHSTPSTPADSSAHSTPSTPVDSSAHSTPSTPADSSAHGTPSTPVDSSAHGTPSTPADSSAHGTPSTPVDSSAHSTPSTPVDSSAHSTPSTPVDSSAHGAPSTPADSSAHGTPSTPVDSSAHGTPSTPADSSAHSTPSTPADSSAHSTPSTPADSSAHSTPSTPVDSSAHGTPSTPADSSAHSTPSTPADSSAHGTPSTPVDSSAHSTPSTPVDSSAHGTPSTPVDSSAHSTPSTPVDSSAHGTPSTPVDSSAHSTPSTPADSSAHSTPSTPADSSAHGTPSTPVDSSAHSTPSTPADSSAHSTPSTPVDSSAHSTPSTPADSSAHGTPSTPVDSSAHGTPSTPADSSAHSTPSTPADSSAHSTPSTPADSSAHSTPSTPVDSSAHSTPSTPADSSAHSTPSTPADSSAHSTPSTPADSSAHSTPSTPVDSSAHSTPSTPADSSAHGTPSTPADSSAHSTPSTPVDSSAHSTPSTPADSSAHGTPSTPADSSAHSTPSTPADSSAHGTPSTPADSSAHSTPSTPAGSSANGTVLILPDGAALSTFSGGGLLLCACALLLHVFFMAVF
B3: TS-F-47: recombinant fragment, amino acid residues 79-666 of SEQ ID NO:34 (protein, listed as Trypanosoma cruzi)
chain: GDARDWDILLAVGEVTKSTAGGKITASIKWGSPVSLKKFFPAEMEGMHTNQFLGGAGVAIVASNGNLVYPVQVTNKRKQVFSKIFYSEDDGKTWKFGKGRSDFGCSEPVALEWEGKLIINTRVDWKRRLVYESSDMEKPWVEAVGTVSRVWGPSPKSNQPGSQTSFTAVTIEGMRVMLFTHPLNFKGRCVRDRLNLWLTDNQRIYNVGQVSIGDENSAYSSVLYKDDKLYCLHEINTDEVYSLVFARLVGELRIIKSVLRSWKNWTATCPAFAPLLIQPLRRQRVVVVPLSPRLVLLAFCRQRLPKRMGGSYRCVNASTANAERVRNGLKFAGVGGGALWPVSQQGQNQRYRFANHAFTLVASVTIHEAPRAASPLLGASLDSSGGKKLLGLSYDEKHQWQPIYGSTPVTPTGSWETGKRYHLVLTMANKIGSVYIDGELLEGSGQTVVPDGRTPDISHFYVGGYKRSDMPTISHVTVNNVLLYNRRQLNTEEIRTLFLSQDLIGTEAHMDSSSDSSAHSTPSTPADSSAHSTPSTPVDSSAHSTPSTPADSSAHGTPSTPVDSSAHGTPSTPADSSAHGTPSTPVDS
B4: TS-Cat-47: recombinant fragment consisting of amino acid residues 79-415 of TS (SEQ ID NO:2) (protein, listed as Trypanosoma cruzi)
chain: MVAIADARYDTSNDNSLIDTVAKYSVDDGETWETQIAIKNSRVSSVSRVVDPTVIVKGNKLYVLVGSYYSSRSYWSSHGDARDWDILLAVGEVTKSTAGGKITASIKWGSPVSLKKFFPAEMEGMHTNQFLGGAGVAIVASNGNLVYPVQVTNKKKQVFSKIFYSEDDGKTWKFGKGRSDFGCSEPVALEWEGKLIINTRVDWKRRLVYESSDMEKPWVEAVGTVSRVWGPSPKSNQPGSQSSFTAVTIEGMRVMLFTHPLNFKGRWLRDRLNLWLTDNQRIYNVGQVSIGDENSAYSSVLYKDDKLYCLHEINTDEVYSLVFARLVGELRIIKSVL
B5: NGF: Mouse 7S nerve growth factor (protein)
chain: SSTHPVFHMGEFSVCDSVSVWVGDKTTATDIKGKEVTVLAEVNINNSVFRQYFFETKCRASNPVESGCRGIDSKHWNSYCTTTHTFVKALTTDEKQAAWRFIRIDTACVCVLSRKATRRG
B6: TS-H32 (protein, listed as Trypanosoma cruzi)
chain: KKKQVFSKIFYSEDDGKTWKFGEGRSAFGCSEAVALEWEGKLIINTRVDYRRRLVYESSDMGNTWLEAVGTLSRVWGPSPKSNQPGSQSSFTAVTIEGMRVMLFTHPLNFKGRWLRDRLNLWLTDNQRIYNVGQVSIGDENSAHSSVLYKDDKLYCLHEINSNEVYSLVFARLVGELRIIKSVLQSWKNWDSHLSSICTP

Key:
[1] = test system: PC12 cells; assay type: cell-based; settings: serum-free RPMI/0.2% BSA, collagen coated dishes, 16-17 hours
[2] = test system: IL-6; assay: IL-6 secretion by T-24 carcinoma cells (ELISA); assay type: cell-based, human; settings: 24 hours
Method: (§1) Primary cultures of human intestinal microvascular endothelial cells (HIMEC) isolated from normal jejunal mucosa/submucosal tissue were prepared as described (Strong et al., Gastroenterology 114:1244-1256 (1998)). The HIMEC were cultured in fibronectin-coated plasticware in MCDB medium (Sigma) supplemented with 20% FBS, 90 μg/ml heparin and 50 μg/ml endothelial cell growth factor (Sigma). T-24 cells (ATCC Accession No. HTB-4) were cultured in M199 medium supplemented with 10% FBS. PBMC were purified by Ficoll-Paque gradient as described (Current Protocols in Immunology, pp 7.1.1-7.1.2). Vero cells (ATCC Accession No. CCL-81) were grown in RPMI medium with 5% Nu serum and infected with the Silvio X-10/4 of T. cruzi as described previously (Chuenkova et al., J. Exp. Med. 181:1693-1703 (1995)).
(§2) Endothelial cells and T-24 cells were plated on 24-well plates at a density of 1×10^3 cells/well, while peripheral blood mononuclear cells (PBMC) were plated in the similar wells at 1×10^6/well. Triplicat cultures of cells were incubated test agents for a predetermined amount of time. […] Cytokines and chemokines released in the culture supernatants were measured by ELISA assay following the instructions of the manufacturer (Endogen). The cytokines tested were IL-1β, IL-4, IL-8, […], IL-12, IFN-γ, TNF-α, and the chemokines RANTES and MCP-1. Negative controls were cells incubated in medium containing polymixin B at 10 μg/ml, and positive controls were cells incubated with bacterial LPS at the low ng/ml range (for PBMC or HIMEC) or in the μg/ml range for carcinoma T-24 cells. In some experiments, IL-1β or TNFα were used as positive control for cytokine release.

[3] = test system: IL-6; assay: IL-6 secretion by PBMC (ELISA); assay type: cell-based, human; settings: 24 hours
Method: as §1, §2
TR peptides (Table 2) were synthesized at the Tufts Synthesis Facility (Boston, Mass.). Each peptide was purified by HPLC, and the number of amino acids and molecular weight of each peptide verified by mass spectrometry. Peptides were dissolved in growth medium (10% FCS in RPMI) and added at various concentrations to 1×10^6 PBMC/well in 24-well plates. After 24 hours, IL-6 was assayed by ELISA in the conditioned supernatants.

[4] = test system: neuroblastoma N18 cells; assay: Neurite outgrowth assay in N18 cells; assay type: cell-based; settings: soluble or immobilized on plastic (500 μg/ml coating), 17 hours
Method: 96-well microtiter plates were coated overnight at 4° C. with the TS or peptides or fragments thereof, or with control proteins laminin (Ln) or bovine serum albumin (BSA) at 500 μg/ml. After removing the compounds, the plates were further incubated with 1% BSA for 1 hour at room temperature and immediately used as substratum for PC12 or N18 (Prasad, K., Biol. Rev. Camb. Philos. Soc., 66:431-451 (1991)) cells in serum-free RPMI/0.2% BSA. Neurite outgrowth was measured using a phase-contrast microscope 17 hours later.

[5] = test system: Akt kinase; assay: Immunodetection and kinase assay of activated Akt in Schwann cells; settings: Western blot P-Akt (Ser473)
Method: Schwann cells, grown in 10% FCS to 70% confluency in 6-well plates, were switched to DMEM containing 0.1% FCS for 48 hours to reduce basal Akt phosphorylation. Then the cells were placed in serum-free DMEM medium for 2 hours and challenged with TS, CD or other test factors for predetermined periods of time. When the PI-3 kinase inhibitor LY294002 (Sigma) was used, the inhibitor was added to the serum-starved cells 30 minutes before challenge with TS or CD. Cell samples were lysed with lysis buffer (20 mM Tris, pH 7.5, 150 mM NaCl, 1 mM EDTA, 1% Triton X-100 (t-Octylphenoxypolyethoxyethanol), 2.5 mM sodium pyrophosphate, 1 mM glycerophosphate, 1 mM Na3VO4, 1 μg/ml leupeptin and 1 mM Phenymethylsulfonyl fluoride (PMSF)). Samples (40 μg) were run on 10% SDS-Page, blotted to nitrocellulose paper and analyzed by Western (immuno) blot with monoclonal antibody specific for P-Ser473 of Akt (New England Biolabs). Reaction was visualized by chemiluminescence using the ECL kit (New England Nuclear).
Enzymatic activity of Akt kinase was assessed using the synthetic substrate GSK-3α-fusion protein (Cell Signaling Technology, Beverly, Mass.), according to the protocol provided by Cell Signaling Technology. In short, lysates of Schwann cells subjected to various treatments were immunoprecipitated with Akt antibody coupled to agarose beads, and the immunoprecipitates incubated with GSK-3α-fusion protein as the substrate for Akt phosphorylation, in the presence of 200 μM ATP. Phosphorylation of GSK-3 fusion protein was detected by Western blot using phospho-GSK-3αβ (Ser21/9)-specific antibody (Cell Signaling Technology). The reaction product was identified by chemiluminescence using the ECL kit (New England Nuclear).

[6] = test system: human Schwann cells; assay: Serum withdrawal-induced apoptosis of Schwann cells (DAPI); assay type: cell-based; settings: serum-free DMEM, 24-72 hours
[7] = Trans-sialidase assay; assay type: biochemical
Method: The trans-sialidase assay was performed as described (Scudder, P. et al., J. Biol. Chem., 268:9886-9891 (1993)) with slight modifications. Various amounts of intact enzyme or enzyme fragments were added to 50 mM PBS, Ph 7.2, containing 15% fetal calf serum and […] of [^14C]N-acetyllactosamine (4×10^5 dpm), 50 μg BSA and 0.02% NaN3 in a volume of 60 μl. After incubation for a predetermined amount of time at room temperature, the reaction mixture was diluted to 1.0 ml with distilled water and applied to a column containing 1.0 ml Q-Sepharose equilibrated with water. Sialylated product was eluted with 1 M NaCl and quantified by scintillation counting.
TS enzymatic activity was measured by the sialylation of the acceptor ^14C-labeled N-acetyllactosamine on anion exchange resins (Scudder, P. et al., J. Biol. Chem. 268:9886-9891 (1993)). Recombinant TSA-1, was expressed on insect sf9 cells and purified from serum-free medium by ion exchange chromatography (monoQ) and preparative SDS-PAGE (Wrightsman, R. A. et al., J. Immunol., 153:3148-3154 (1994).

[8] = test system: PC12 cells; assay: Protection of PC12 cells from apoptosis induced by trophic factor withdrawal (DAPI, TUNEL); assay type: cell-based
Source text: PC12 cells were obtained from ATCC (Manassas, Va. (Accession No. CRL-1721)) and cultured on collagen-coated dishes in RPMI 1640 supplemented with 10% horse serum and 5% fetal bovine serum (Greene, L., and Tishler, A., Proc. Natl. Acad. Sci. USA, 73:2424-2428 (1976)). For differentiation and survival experiments, cells were washed three times in serum-free RPMI/0.2% BSA, plated in the same medium in collagen-coated plastic dishes at 2×10^5/ml, without and with growth factors, TS, recombinant proteins, synthetic peptides, for the time and concentrations indicated in the Figures.
Cell staining with 4,6-diamino-2-phenylindole (DAPI). Cells were fixed with 4% formaldehyde in PBS for 5 minutes, washed with PBS, stained with 10 μg/ml DAPI (Sigma) for 2 minutes, washed with PBS, and visualized under UV light using a fluorescent microscope. About 300-400 cells were examined under the microscope to determine the percentage of apoptotic cells.
Cell DNA nick end labeling (TUNEL) (Gavrieli, Y. et al., J. Cell. Biol., 119:493-501 (1992)) assay was performed using a kit purchased from Boehringer Mannheim as described by the manufacturer.
Protection against apoptosis of PC12 cells in serum-free medium containing a test agent (agent N) (e.g., protection induced by TS, TS fragments, NGF or other growth factors), was calculated by the formula: 100%−[(apoptosis(%) of cells kept in RPMI containing test agent N÷apoptosis (%) of cells kept in RPMI)×100%]. Testing the effect of Wortmannin (Sigma) and LY294002 (Sigma) in inhibiting the neuroprotection of TS was performed following the protocol described by others (Yao, R., and Cooper, G., Science, 267:2003-2006 (1995); D'Mello, et al., J. Neurosci., 17:1548-1560 (1997)). In brief, PC12 cells were switched from growth medium to RPMI without and with TS or various other growth factors. After 24 hours, Wortmannin and LY294002 were added to the cultures. After another 24 hours, cells were examined for apoptosis by the DAPI assay, as above.

| Molecule | neurite outgrowth in PC12 cells [1] | IL-6 secretion by T-24 cells [2] | IL-6 secretion by PBMC [3] | neurite outgrowth in N18 cells [4] | trans-sialidase (enzymatic) activity [7] | also measured |
| --- | --- | --- | --- | --- | --- | --- |
| B1 | did not induce neurite extension |  |  |  |  | neurite outgrowth in PC12 cells ([1]; listed as cruzipan): ineffective |
| B2 | did not induce neurite outgrowth | effectively induced release of IL-6 in a dose-dependent manner; also recorded: dose dependent secretion of IL-6 | upregulated IL-6 release | did not induce neurite outgrowth |  | phosphorylation (activation) of Akt kinase in Schwann cells [5]: nor activate PI3K/Akt signaling; inhibition of serum withdrawal-induced apoptosis of Schwann cells [6]: did not promote Schwann cell survival |
| B3 |  |  |  | as effective as the native enzyme in stimulating neurite outgrowth; also recorded: active both in stimulating neurite outgrowth | enzymatically inactive | protection of PC12 cells from apoptosis induced by trophic factor withdrawal ([8]; serum-free RPMI-1640/0.2% BSA, 17 hours, DAPI or TUNEL): active |
| B4 |  |  |  | inactive in stimulating neurite outgrowth; also recorded: did not promote neurite outgrowth |  |  |
| B5 | induces neurite outgrowth |  |  |  |  | PC12 cells protected from apoptotic death ([8]; NGF at 0.5 ng/ml): 18% |
| B6 |  | stimulating IL-6 secretion | stimulating IL-6 secretion |  | enzymatically-inactive |  |
